Legend:
[1] = tested on: high cardiovascular risk patients with hypercholesterolemia; test: ODYSSEY COMBO I: antibodies to alirocumab; format: in vivo, human
Description: In seven of these patients, the antibodies were transient and resolved despite continued alirocumab treatment.

[2] = tested on: high cardiovascular risk patients with hypercholesterolemia; test: ODYSSEY COMBO II: safety (TEAEs, adjudicated CV events, laboratory parameters, low LDL-C)
Description: Safety assessments during both studies were as follows. Safety was assessed through adverse event (AE) reporting (including adjudicated cardiovascular events), laboratory analyses, and vital signs measurement. Since the LDL-C-lowering effects of PCSK9 inhibition on top of a statin are unknown, a number of AEs were defined as being of special interest and were monitored, including alanine aminotransferase abnormalities, allergic events, hemolytic anemia, pregnancy, overdose with study drug, neurologic events, ophthalmic events, and local injection site reactions.
Safety Analyses were as follows. AEs (including adjudicated cardiovascular events), laboratory parameters, and vital signs were reported descriptively, based on the safety population (all randomized patients who received at least 1 dose or partial dose of study treatment). The safety analysis focused on the treatment-emergent AE period defined as the time from the first double-blind dose to the last double-blind dose of the investigational product +70 days (10 weeks).
The safety population included all randomized patients who received at least one dose or part of a dose of the double-blind IMP.
Safety analyses were descriptive, performed on the safety population according to treatment actually received. For analysis of TEAE and PCSA, the safety analysis focused on the TEAE period defined as the time from the first dose of double-blind IMP administration (capsule or injection, whichever comes first) up to 70 days after the last double-blind injection.

[3] = alirocumab patients with two consecutive LDL-C ≦25 mg/dL (n = 105), number (%) of patients
[4] = safety population at 52 weeks, all patients, number (%) of patients

Alirocumab: human anti-PCSK9 antibody; HCVR SEQ ID NO:1, LCVR SEQ ID NO:6; CDRs SEQ ID NOs 2/3/4/7/8/10
Effect of anti-alirocumab antibodies on safety and efficacy ([1]; in vivo): no observed effect on safety and efficacy
Median time to detection of antibodies to alirocumab ([1]; in vivo): 12 weeks
Antibodies to alirocumab detected at baseline ([1]; patients subsequently randomized to alirocumab (3/197)): 1.5%
Anti-alirocumab antibody titer ([1]; treatment-emergent positive patients): ≤ 240
Laboratory parameters: Blood glucose increased [2, 3]: 1 (1.0)
Laboratory parameters: Hemoglobin decreased [2, 3]: 3 (2.9)
Patients experiencing any TEAE [2, 3]: 72 (68.6)
TEAE preferred term: Accidental overdose [2, 3]: 6 (5.7)
TEAE preferred term: Angina pectoris [2, 3]: 2 (1.9)
TEAE preferred term: Arthralgia [2, 3]: 5 (4.8)
TEAE preferred term: Dizziness [2, 3]: 5 (4.8)
TEAE preferred term: Headache [2, 3]: 4 (3.8)
TEAE preferred term: Hypertension [2, 3]: 3 (2.9)
TEAE preferred term: Influenza [2, 3]: 3 (2.9)
TEAE preferred term: Myalgia [2, 3]: 4 (3.8)
TEAE preferred term: Nasopharyngitis [2, 3]: 10 (9.5)
TEAE preferred term: Upper respiratory tract infection [2, 3]: 4 (3.8)
TEAE system organ class: Blood and lymphatic system disorders [2, 3]: 4 (3.8)
TEAE system organ class: Cardiac disorders [2, 3]: 14 (13.3)
TEAE system organ class: Eye disorders [2, 3]: 2 (1.9)
TEAE system organ class: Gastrointestinal disorders [2, 3]: 19 (18.1)
TEAE system organ class: General disorders and administration site conditions [2, 3]: 10 (9.5)
TEAE system organ class: Infections and infestations [2, 3]: 35 (33.3)
TEAE system organ class: Injury, poisoning, and procedural complications [2, 3]: 10 (9.5)
TEAE system organ class: Investigations [2, 3]: 7 (6.7)
TEAE system organ class: Metabolism and nutrition disorders [2, 3]: 6 (5.7)
TEAE system organ class: Musculoskeletal and connective tissue disorders [2, 3]: 19 (18.1)
TEAE system organ class: Neoplasms, benign, malignant and unspecified (including cysts and polyps) [2, 3]: 5 (4.8)
TEAE system organ class: Nervous system disorders [2, 3]: 17 (16.2)
TEAE system organ class: Psychiatric disorders [2, 3]: 2 (1.9)
TEAE system organ class: Renal and urinary disorders [2, 3]: 7 (6.7)
TEAE system organ class: Reproductive system and breast disorders [2, 3]: 4 (3.8)
TEAE system organ class: Respiratory, thoracic, and mediastinal disorders [2, 3]: 11 (10.5)
TEAE system organ class: Skin and subcutaneous tissue disorders [2, 3]: 10 (9.5)
TEAE system organ class: Vascular disorders [2, 3]: 4 (3.8)
Adjudicated cardiovascular events ([2]; in vivo): 4.8%
SOC gastrointestinal disorders ([2]; in vivo): 15.0%
SOC musculoskeletal and connective tissue disorders ([2]; in vivo): 19.6%
Safety in patients with two consecutive calculated LDL-C <25 mg/dL ([2]; in vivo): No particular safety concern
Treatment-emergent local injection site reactions ([2]; in vivo): 2.5%
Patients who experienced at least one TEAE ([2]; mean 58 weeks' follow-up): 71.2%
Serious adverse event ([2]; mean 58 weeks' follow-up): 18.8%
TEAE leading to death ([2]; mean 58 weeks' follow-up): 2 (0.4%) n (%)
TEAEs leading to treatment discontinuation ([2]; mean 58 weeks' follow-up): 7.5%
Tolerability ([2]; overall results): well-tolerated
Time to the first calculated LDL-C value <15 mg/dL, mean ([2]; safety population): 15.07 weeks
Time to the first calculated LDL-C value <15 mg/dL, median ([2]; safety population): 9.14 weeks
Time to the first calculated LDL-C value <25 mg/dL, mean ([2]; safety population): 12.56 weeks
Time to the first calculated LDL-C value <25 mg/dL, median ([2]; safety population): 5.14 weeks
Laboratory parameters: Blood glucose increased [2, 4]: 1 (0.2)
Laboratory parameters: Hemoglobin decreased [2, 4]: 4 (0.8)
Patients experiencing any TEAE [2, 4]: 341 (71.2)
TEAE preferred term: Accidental overdose [2, 4]: 30 (6.3)
TEAE preferred term: Angina pectoris [2, 4]: 12 (2.5)
TEAE preferred term: Arthralgia [2, 4]: 19 (4.0)
TEAE preferred term: Dizziness [2, 4]: 23 (4.8)
TEAE preferred term: Headache [2, 4]: 21 (4.4)
TEAE preferred term: Hypertension [2, 4]: 18 (3.8)
TEAE preferred term: Influenza [2, 4]: 17 (3.5)
TEAE preferred term: Myalgia [2, 4]: 21 (4.4)
TEAE preferred term: Nasopharyngitis [2, 4]: 18 (3.8)
TEAE system organ class: Blood and lymphatic system disorders [2, 4]: 11 (2.3)
TEAE system organ class: Cardiac disorders [2, 4]: 60 (12.5)
TEAE system organ class: Eye disorders [2, 4]: 23 (4.8)
